Series [1] addresses human βB2-crystallin W196F (human) (UniProt P43320). In words: SEC. A general note: Size exclusion chromatography separates by hydrodynamic size, large species first.
Series [2] has the same target. Kind of series: AUC.
Series [3] concerns the molecule itself. In words: SEC.
The series “AUC” concerns the molecule itself. In words: AUC.
Series [4] concerns the molecule itself. In words: SEC. This is another data set of the same source.

The source of these data is PMC11201810 (Protein Science : A Publication of the Protein Society, 2024).

“And” between values parts separate entries of the source, which are not always exact repeats. Equal values may be shown once. Read-outs that look alike come from different tables or passages of the source.

Usually stoichiometry N stands for a count of units in the complex or per binding partner. Regarding “human βB2-crystallin W196F (from UniProt P43320 1-205) (natural protein)”, the stoichiometry N in series [1] was 4 and 2. Moreover, in series [2], the % dimer was 83.4% and the % tetramer amounted to 12.7%.

B1: human βB2-crystallin W151F (natural protein, UniProt P43320 1-205, looked up)
chain: MASDHQTQAGKPQSLNPKIIIFEQENFQGHSHELNGPCPNLKETGVEKAGSVLVQAGPWVGYEQANCKGEQFVFEKGEYPRWDSWTSSRRTDSLSSLRPIKVDSQEHKIILYENPNFTGKKMEIIDDDVPSFHAHGYQEKVSSVRVQSGTFVGYQYPGYRGLQYLLEKGDYKDSSDFGAPHPQVQSVRRIRDMQWHQRGAFHPSN
As for B1, the “stoichiometry N” value in the series “SEC [3]” turned out to be 2. Besides, in “AUC”, the “% dimer” value came to 92.2 ± 0.5% and the “% tetramer” value was 2.7 ± 0.1%.

B2: human βB2-crystallin W85F (natural protein, UniProt P43320 1-205, looked up)
chain: MASDHQTQAGKPQSLNPKIIIFEQENFQGHSHELNGPCPNLKETGVEKAGSVLVQAGPWVGYEQANCKGEQFVFEKGEYPRWDSFTSSRRTDSLSSLRPIKVDSQEHKIILYENPNFTGKKMEIIDDDVPSFHAHGYQEKVSSVRVQSGTWVGYQYPGYRGLQYLLEKGDYKDSSDFGAPHPQVQSVRRIRDMQWHQRGAFHPSN
As to B2, the “stoichiometry N” value in the series “SEC [3]” is 2 and 4. Further, in “AUC”, the “% dimer” value stood at 79.7 ± 0.6% and the “% tetramer” value is 11.5 ± 0.6%.

B3: human βB2-crystallin W82F (natural protein, UniProt P43320 1-205, looked up)
chain: MASDHQTQAGKPQSLNPKIIIFEQENFQGHSHELNGPCPNLKETGVEKAGSVLVQAGPWVGYEQANCKGEQFVFEKGEYPRFDSWTSSRRTDSLSSLRPIKVDSQEHKIILYENPNFTGKKMEIIDDDVPSFHAHGYQEKVSSVRVQSGTWVGYQYPGYRGLQYLLEKGDYKDSSDFGAPHPQVQSVRRIRDMQWHQRGAFHPSN
Consider B3, for which the “stoichiometry N” value in “SEC [3]” is 2 and 4. In the series “AUC”, the “% dimer” value came to 75.5 ± 0.3% and the “% tetramer” value was 22.3 ± 0.2%.

B4: human βB2-crystallin W59F (natural protein, UniProt P43320 1-205, looked up)
chain: MASDHQTQAGKPQSLNPKIIIFEQENFQGHSHELNGPCPNLKETGVEKAGSVLVQAGPFVGYEQANCKGEQFVFEKGEYPRWDSWTSSRRTDSLSSLRPIKVDSQEHKIILYENPNFTGKKMEIIDDDVPSFHAHGYQEKVSSVRVQSGTWVGYQYPGYRGLQYLLEKGDYKDSSDFGAPHPQVQSVRRIRDMQWHQRGAFHPSN
With B4, the “stoichiometry N” value in “SEC [3]” stood at 2; in “SEC [4]”, 4. Also, the “% dimer” value in “AUC” turned out to be 48.7 ± 0.3%. Moreover, the “% tetramer” value in the series “AUC” came to 36.1 ± 0.4%.
